US20120270784A1 (THERATECHNOLOGIES, published 2012)

B1: Ac-YADAIFTDSYRKVLAQLSARKLLQDILSR-NH2 (SEQ ID NO: 43) (peptide)
peptide: Ac-YADAIFTDSYRKVLAQLSARKLLQDILSR-NH2
B2: Trans-3-hexenoyl-YADAIFTDSYRKVLAQLSARQDILARAARAAR-NH2 (SEQ ID NO: 27) (peptide)
peptide: YADAIFTDSYRKVLAQLSARQDILARAARAAR
HELM: PEPTIDE1{[CC/C=C/CC(=O)[*:2]].Y.A.D.A.I.F.T.D.S.Y.R.K.V.L.A.Q.L.S.A.R.Q.D.I.L.A.R.A.A.R.A.A.R.[am]}$$$$V2.0
SMILES: CC/C=C/CC(=O)N[C@@H](Cc1ccc(O)cc1)C(=O)N[C@@H](C)C(=O)N[C@@H](CC(=O)O)C(=O)N[C@@H](C)C(=O)N[C@H](C(=O)N[C@@H](Cc1ccccc1)C(=O)N[C@H](C(=O)N[C@@H](CC(=O)O)C(=O)N[C@@H](CO)C(=O)N[C@@H](Cc1ccc(O)cc1)C(=O)N[C@@H](CCCNC(=N)N)C(=O)N[C@@H](CCCCN)C(=O)N[C@H](C(=O)N[C@@H](CC(C)C)C(=O)N[C@@H](C)C(=O)N[C@@H](CCC(N)=O)C(=O)N[C@@H](CC(C)C)C(=O)N[C@@H](CO)C(=O)N[C@@H](C)C(=O)N[C@@H](CCCNC(=N)N)C(=O)N[C@@H](CCC(N)=O)C(=O)N[C@@H](CC(=O)O)C(=O)N[C@H](C(=O)N[C@@H](CC(C)C)C(=O)N[C@@H](C)C(=O)N[C@@H](CCCNC(=N)N)C(=O)N[C@@H](C)C(=O)N[C@@H](C)C(=O)N[C@@H](CCCNC(=N)N)C(=O)N[C@@H](C)C(=O)N[C@@H](C)C(=O)N[C@@H](CCCNC(=N)N)C(N)=O)[C@@H](C)CC)C(C)C)[C@@H](C)O)[C@@H](C)CC
B3: Trans-3-hexenoyl-YADAIFTDSYRKVLAQLKARQDILARAAR-NH2 (SEQ ID NO: 26) (peptide)
peptide: YADAIFTDSYRKVLAQLKARQDILARAAR
HELM: PEPTIDE1{[CC/C=C/CC(=O)[*:2]].Y.A.D.A.I.F.T.D.S.Y.R.K.V.L.A.Q.L.K.A.R.Q.D.I.L.A.R.A.A.R.[am]}$$$$V2.0
SMILES: CC/C=C/CC(=O)N[C@@H](Cc1ccc(O)cc1)C(=O)N[C@@H](C)C(=O)N[C@@H](CC(=O)O)C(=O)N[C@@H](C)C(=O)N[C@H](C(=O)N[C@@H](Cc1ccccc1)C(=O)N[C@H](C(=O)N[C@@H](CC(=O)O)C(=O)N[C@@H](CO)C(=O)N[C@@H](Cc1ccc(O)cc1)C(=O)N[C@@H](CCCNC(=N)N)C(=O)N[C@@H](CCCCN)C(=O)N[C@H](C(=O)N[C@@H](CC(C)C)C(=O)N[C@@H](C)C(=O)N[C@@H](CCC(N)=O)C(=O)N[C@@H](CC(C)C)C(=O)N[C@@H](CCCCN)C(=O)N[C@@H](C)C(=O)N[C@@H](CCCNC(=N)N)C(=O)N[C@@H](CCC(N)=O)C(=O)N[C@@H](CC(=O)O)C(=O)N[C@H](C(=O)N[C@@H](CC(C)C)C(=O)N[C@@H](C)C(=O)N[C@@H](CCCNC(=N)N)C(=O)N[C@@H](C)C(=O)N[C@@H](C)C(=O)N[C@@H](CCCNC(=N)N)C(N)=O)[C@@H](C)CC)C(C)C)[C@@H](C)O)[C@@H](C)CC

Target: T1, human GRF receptor (human, UniProt Q02643 23-423)
T1 sequence (looked up): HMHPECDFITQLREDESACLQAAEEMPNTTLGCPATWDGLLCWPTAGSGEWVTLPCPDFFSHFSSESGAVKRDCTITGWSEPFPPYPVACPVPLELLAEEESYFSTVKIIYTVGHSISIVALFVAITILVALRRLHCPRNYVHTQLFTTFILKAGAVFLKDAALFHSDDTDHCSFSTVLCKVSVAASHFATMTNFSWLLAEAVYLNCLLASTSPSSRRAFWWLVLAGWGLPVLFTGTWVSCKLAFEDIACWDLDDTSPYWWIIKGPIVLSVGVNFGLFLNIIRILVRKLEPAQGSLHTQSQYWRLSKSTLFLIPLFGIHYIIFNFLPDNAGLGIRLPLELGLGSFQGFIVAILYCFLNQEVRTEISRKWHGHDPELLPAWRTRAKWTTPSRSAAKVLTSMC
Test: cell-based or functional assay

Point of comparison: B3, “EC50 as assessed by alkaline phosphatase (AP) induction” value 0.13 nM. Against it:
- B1 — 1.9-fold higher, 0.25 nM
- B2 — within 1.5-fold, 0.19 nM
